We go through one substance from publication PMC4252516.

The test addresses AbrBC, C-terminal multimerization domain of AbrB from Bacillus subtilis (residues 52-94) (Bacillus subtilis). Description: SEC.

The term stoichiometry N denotes a count of units in the complex or per binding partner. “AbrBC, C-terminal multimerization domain of AbrB from Bacillus subtilis (residues 52-94) (domain or fragment)” displayed a stoichiometry N of 2.
